Laboratory results reported in paper doi:10.1101/200493.
Where two headings read alike, the source gives them in different places.

Columns and labels:
[1] = target: His-tagged human recombinant αVβ3 integrin (human) (UniProt P06756); test: BLI
[2] = target: His-tagged human recombinant αVβ3 integrin (human) (UniProt P06756); test: BLI; remark: listed apart in the source

Sequence of His-tagged human recombinant αVβ3 integrin (human) (P06756 31-1048, chain 1 of 2): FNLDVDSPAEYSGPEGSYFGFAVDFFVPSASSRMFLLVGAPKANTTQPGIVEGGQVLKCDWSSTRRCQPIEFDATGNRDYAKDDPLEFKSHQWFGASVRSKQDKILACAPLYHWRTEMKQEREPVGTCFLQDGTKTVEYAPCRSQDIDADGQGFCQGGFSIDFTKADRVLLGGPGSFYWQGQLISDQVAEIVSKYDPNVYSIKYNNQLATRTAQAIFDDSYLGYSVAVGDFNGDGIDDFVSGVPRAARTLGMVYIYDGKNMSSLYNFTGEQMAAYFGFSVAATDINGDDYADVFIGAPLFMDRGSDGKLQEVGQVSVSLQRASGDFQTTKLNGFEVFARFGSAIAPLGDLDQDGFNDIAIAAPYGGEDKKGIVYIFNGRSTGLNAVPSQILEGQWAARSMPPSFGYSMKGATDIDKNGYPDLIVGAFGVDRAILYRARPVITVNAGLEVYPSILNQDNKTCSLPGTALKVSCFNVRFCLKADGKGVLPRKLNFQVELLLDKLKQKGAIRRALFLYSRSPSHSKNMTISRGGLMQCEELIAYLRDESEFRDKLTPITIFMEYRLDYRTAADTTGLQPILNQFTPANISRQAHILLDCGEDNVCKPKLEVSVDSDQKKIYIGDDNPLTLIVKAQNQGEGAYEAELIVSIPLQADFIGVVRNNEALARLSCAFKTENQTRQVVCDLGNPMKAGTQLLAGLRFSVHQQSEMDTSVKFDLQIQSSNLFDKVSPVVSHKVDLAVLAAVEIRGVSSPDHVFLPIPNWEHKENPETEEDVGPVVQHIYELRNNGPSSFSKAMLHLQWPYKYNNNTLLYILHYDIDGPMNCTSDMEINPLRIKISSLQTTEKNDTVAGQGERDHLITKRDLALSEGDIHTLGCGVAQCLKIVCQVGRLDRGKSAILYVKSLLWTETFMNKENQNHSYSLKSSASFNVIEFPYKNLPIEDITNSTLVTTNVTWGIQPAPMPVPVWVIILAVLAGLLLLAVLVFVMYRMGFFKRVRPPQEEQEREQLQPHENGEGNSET
Sequence of His-tagged human recombinant αVβ3 integrin (human) (P05106 27-718, chain 2 of 2, further chain): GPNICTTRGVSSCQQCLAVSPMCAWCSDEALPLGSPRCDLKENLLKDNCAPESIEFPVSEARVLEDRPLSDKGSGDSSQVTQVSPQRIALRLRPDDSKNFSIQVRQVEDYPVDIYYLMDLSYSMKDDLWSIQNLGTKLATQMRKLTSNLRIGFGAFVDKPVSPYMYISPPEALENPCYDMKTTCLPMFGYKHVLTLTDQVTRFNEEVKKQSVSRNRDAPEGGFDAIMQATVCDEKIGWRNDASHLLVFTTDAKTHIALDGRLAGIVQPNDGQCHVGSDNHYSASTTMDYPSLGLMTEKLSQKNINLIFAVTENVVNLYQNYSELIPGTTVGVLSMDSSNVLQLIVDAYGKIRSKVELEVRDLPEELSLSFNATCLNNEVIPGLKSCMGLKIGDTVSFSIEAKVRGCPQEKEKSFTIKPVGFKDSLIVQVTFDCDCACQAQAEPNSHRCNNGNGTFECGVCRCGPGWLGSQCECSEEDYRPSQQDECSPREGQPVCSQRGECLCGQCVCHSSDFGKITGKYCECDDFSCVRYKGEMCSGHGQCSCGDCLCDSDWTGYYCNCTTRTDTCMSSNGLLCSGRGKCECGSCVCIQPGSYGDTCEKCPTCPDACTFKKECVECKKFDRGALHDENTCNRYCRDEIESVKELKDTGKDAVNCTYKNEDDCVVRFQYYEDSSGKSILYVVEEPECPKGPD
Sequence of human vitronectin (P04004 20-478): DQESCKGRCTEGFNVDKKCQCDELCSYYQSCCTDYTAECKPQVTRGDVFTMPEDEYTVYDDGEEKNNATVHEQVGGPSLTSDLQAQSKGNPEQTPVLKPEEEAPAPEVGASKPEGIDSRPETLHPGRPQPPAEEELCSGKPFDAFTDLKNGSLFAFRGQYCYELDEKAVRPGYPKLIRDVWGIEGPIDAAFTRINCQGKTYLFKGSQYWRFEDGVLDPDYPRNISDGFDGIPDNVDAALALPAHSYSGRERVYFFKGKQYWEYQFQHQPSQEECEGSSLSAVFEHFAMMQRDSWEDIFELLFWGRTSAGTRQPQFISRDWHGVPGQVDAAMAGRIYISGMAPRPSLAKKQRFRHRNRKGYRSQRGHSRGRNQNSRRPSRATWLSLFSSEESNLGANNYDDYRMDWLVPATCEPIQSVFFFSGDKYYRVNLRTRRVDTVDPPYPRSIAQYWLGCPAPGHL

Substance | Kd [1] [nM] | Kd [2] [nM]
human plasma fibronectin (ligand) | 54 | –
human vitronectin (from UniProt P04004 20-478) (ligand) | < 0.001 | 303
native human fibrinogen (from UniProt P02671 36-866; P02675 45-491; P02679 27-453) (ligand) | 8.15 | –
